Experimental data taken from paper PMC9913075.

Target: Taspase1, endogenous in HeLa cells (human (endogenous in HeLa)) (UniProt Q9H6P5)
Test: proximity ligation; Duolink PLA on fixed HeLa cells with rabbit anti-Topoisomerase IIα/β and mouse anti-Taspase1; foci per nucleus counted

UniProt Q9H6P5, sequence (Q9H6P5 whole entry): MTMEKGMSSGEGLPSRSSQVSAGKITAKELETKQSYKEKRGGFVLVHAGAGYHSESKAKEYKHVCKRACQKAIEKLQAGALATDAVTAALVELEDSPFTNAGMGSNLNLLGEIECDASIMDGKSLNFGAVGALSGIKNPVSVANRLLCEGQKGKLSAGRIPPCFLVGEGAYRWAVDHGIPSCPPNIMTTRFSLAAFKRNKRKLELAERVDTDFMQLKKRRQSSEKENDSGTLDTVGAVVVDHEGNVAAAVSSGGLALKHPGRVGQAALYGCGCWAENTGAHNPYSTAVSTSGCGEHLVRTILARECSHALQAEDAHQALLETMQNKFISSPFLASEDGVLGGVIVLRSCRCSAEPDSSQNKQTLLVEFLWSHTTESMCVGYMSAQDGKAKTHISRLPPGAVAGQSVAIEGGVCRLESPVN

PLA foci per nucleus (median) (foci per nucleus): 45
Substance: Topo IIα/β (endogenous, HeLa cells, detected with an antibody that recognises both isoforms)
